Data reported in patent publication US20210070875A1.
Several values for one entry are separate records, joined by “and”; a condition that tells them apart may be missing. Equal values may be shown once.

Experiments:
C5aR polypeptide-03 = C5aR polypeptide-03 (UniProt P21730); assay: ELISA, polypeptide coated at 1.0 µg/mL
C5aR polypeptide-05 = C5aR polypeptide-05 (UniProt P21730); assay: ELISA, polypeptide coated at 1.0 µg/mL
C5aR polypeptide-04 = C5aR polypeptide-04 (UniProt P21730); assay: ELISA, polypeptide coated at 1.0 µg/mL
[1] = molecular target: C5aR extracellular N-terminus polypeptide (UniProt P21730); assay: ELISA, polypeptide coated at 1.0 µg/mL
human C5aR (human) [2] = molecular target: human C5aR (human) (UniProt P21730); assay: FACS, CHOK1-hC5aR cells, 0.0000 nM antibody (background)
human C5aR (human) [3] = molecular target: human C5aR (human) (UniProt P21730); assay: cell-based or functional assay
human C5aR (human) [4] = molecular target: human C5aR (human) (UniProt P21730); assay: FACS, CHOK1-hC5aR cells, 666.0000 nM antibody
human C5aR (human) [5] = molecular target: human C5aR (human) (UniProt P21730); assay: FACS, CHOK1-hC5aR cells, 0.6660 nM antibody
human C5aR (human) [6] = molecular target: human C5aR (human) (UniProt P21730); assay: FACS, CHOK1-hC5aR cells, 66.6000 nM antibody
human C5aR (human) [7] = molecular target: human C5aR (human) (UniProt P21730); assay: FACS, CHOK1-hC5aR cells, 0.0666 nM antibody
human C5aR (human) [8] = molecular target: human C5aR (human) (UniProt P21730); assay: FACS, CHOK1-hC5aR cells, 6.6600 nM antibody
human C5aR (human) [9] = molecular target: human C5aR (human) (UniProt P21730); assay: FACS, CHOK1-hC5aR cells, 0.0067 nM antibody
human C5aR (human) [10] = molecular target: human C5aR (human) (UniProt P21730); assay: FACS, CHOK1-hC5aR cells, 0.0007 nM antibody

human C5aR (human), sequence (P21730 other isoform, or with tags, fused parts or gaps): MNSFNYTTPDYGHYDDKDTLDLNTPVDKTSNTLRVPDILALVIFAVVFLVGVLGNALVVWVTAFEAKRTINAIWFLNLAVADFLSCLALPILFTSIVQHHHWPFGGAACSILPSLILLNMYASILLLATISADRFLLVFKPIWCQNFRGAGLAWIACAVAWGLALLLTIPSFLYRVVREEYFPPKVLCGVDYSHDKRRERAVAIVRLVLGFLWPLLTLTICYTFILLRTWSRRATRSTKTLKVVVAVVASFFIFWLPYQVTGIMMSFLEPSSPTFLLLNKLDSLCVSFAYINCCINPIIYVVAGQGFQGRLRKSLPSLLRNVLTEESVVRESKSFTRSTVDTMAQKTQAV

Substance: IgG control (human IgG) (antibody)
- OD450 nm (C5aR polypeptide-03): 0.07 OD450 nm
- OD450 nm (C5aR polypeptide-05): 0.07 OD450 nm
- OD450 nm (C5aR polypeptide-04): 0.06 OD450 nm
- OD450 nm [1]: 0.07 OD450 nm

Substance: mIgG control (murine IgG) (antibody)
- MFI (human C5aR (human) [2]): 2.69 MFI and 1.99 MFI
- C5a-induced human neutrophil migration, Celltiter-Glo fluorescence intensity value, Parallel sample 1 (fluorescence intensity) (human C5aR (human) [3]): 5170
- C5a-induced human neutrophil migration, Celltiter-Glo fluorescence intensity value, Parallel sample 2 (fluorescence intensity) (human C5aR (human) [3]): 5000
- C5a-induced human neutrophil migration, Celltiter-Glo fluorescence intensity value, Parallel sample 3 (fluorescence intensity) (human C5aR (human) [3]): 2580
- C5a-induced human neutrophil migration, Celltiter-Glo fluorescence intensity value, Parallel sample 4 (fluorescence intensity) (human C5aR (human) [3]): 2640
- C5a-mediated calcium flow signal, FLIPR, antibody 0.0 µg/mL (human C5aR (human) [3]): 1870 MFI and 1690 MFI
- C5a-mediated calcium flow signal, FLIPR, antibody 0.01 µg/mL (human C5aR (human) [3]): 2110 MFI and 1890 MFI
- C5a-mediated calcium flow signal, FLIPR, antibody 0.1 µg/mL (human C5aR (human) [3]): 2080 MFI and 1740 MFI
- C5a-mediated calcium flow signal, FLIPR, antibody 0.4 µg/mL (human C5aR (human) [3]): 1920 MFI and 1610 MFI
- C5a-mediated calcium flow signal, FLIPR, antibody 1.1 µg/mL (human C5aR (human) [3]): 1830 MFI and 1790 MFI
- C5a-mediated calcium flow signal, FLIPR, antibody 3.3 µg/mL (human C5aR (human) [3]): 1870 MFI and 1840 MFI
- C5a-mediated calcium flow signal, FLIPR, antibody 10.0 µg/mL (human C5aR (human) [3]): 1730 MFI and 1850 MFI
- C5a-mediated calcium flow signal, FLIPR, antibody 30.0 µg/mL (human C5aR (human) [3]): 1590 MFI
- MFI (human C5aR (human) [4]): 3.22 MFI and 2.21 MFI
- MFI (human C5aR (human) [5]): 2.96 MFI and 1.99 MFI
- MFI (human C5aR (human) [6]): 3.18 MFI and 2.14 MFI
- MFI (human C5aR (human) [7]): 2.81 MFI and 2 MFI
- MFI (human C5aR (human) [8]): 2.88 MFI and 2.01 MFI
- MFI (human C5aR (human) [9]): 2.79 MFI and 2.01 MFI
- MFI (human C5aR (human) [10]): 2.78 MFI and 2.03 MFI
